Holding throughout (test): SPR
Common to all, as to details: remark: other sources report otherwise

Substrate in experiment [1]: CIS F116L-EloB/C (human), Q9NSE2
Substrate in experiment [2]: CIS F74, F116L-EloB/C (human), Q9NSE2
Substrate in experiment [3]: CIS F74, F116L-EloB/C + F3 (human), Q9NSE2
Substrate in experiment [4]: CIS F74L-EloB/C + F3 (human), Q9NSE2
Substrate in experiment [5]: CIS R78G, F116L-EloB/C (human), Q9NSE2
Substrate in experiment [6]: CIS R78G, F116L-EloB/C + F3 (human), Q9NSE2
Substrate in experiment [7]: CIS R78G-EloB/C (human), Q9NSE2
Substrate in experiment [8]: CIS R78G-EloB/C + F3 (human), Q9NSE2
Experiment [9] addresses CIS-Elo B/C + F3 (human), Q9NSE2.
The target in experiment [10] is SOCS2 FL + F3 (human), O14508.
SOCS2 FL + F3 (human), O14508, sequence (O14508 whole entry, chain 1 of 3): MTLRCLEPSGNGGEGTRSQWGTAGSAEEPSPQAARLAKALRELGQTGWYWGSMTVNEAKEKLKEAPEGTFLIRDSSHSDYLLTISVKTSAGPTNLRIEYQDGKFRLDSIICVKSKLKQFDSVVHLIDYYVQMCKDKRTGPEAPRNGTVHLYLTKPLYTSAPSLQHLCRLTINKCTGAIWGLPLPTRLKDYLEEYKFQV
SOCS2 FL + F3 (human), O14508, sequence (Q15370 whole entry, chain 2 of 3, further chain): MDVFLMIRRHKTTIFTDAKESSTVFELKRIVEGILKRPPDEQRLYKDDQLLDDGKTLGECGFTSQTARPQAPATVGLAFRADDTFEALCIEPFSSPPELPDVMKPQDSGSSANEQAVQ
SOCS2 FL + F3 (human), O14508, sequence (Q15369 17-112, chain 3 of 3, further chain): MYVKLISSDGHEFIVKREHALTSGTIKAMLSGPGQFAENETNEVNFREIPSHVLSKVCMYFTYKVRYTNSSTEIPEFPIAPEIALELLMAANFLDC

B1: GHR pY595 peptide (peptide)
chain: PVPDYTSIHIV
modifications: here or on the partner: phosphotyrosine at 595
By IC50 is commonly meant the concentration that gives 50% inhibition. As to B1, the IC50 was 6.6 µM in “SPR [1]”; 7 µM in “SPR [2]”; 3.7 µM in “SPR [3]”; 4.2 µM in the experiment “SPR [4]”; 20 µM in “SPR [5]”; 8.8 µM in “SPR [6]”. The half-inhibitory concentration (IC50) came to 6.7 µM in the experiment “SPR [7]”, 2 µM in “SPR [8]”, 4.3 µM in experiment [9] and 0.2 µM in experiment [10].
